{
  "source": "paper PMC8289115",
  "about": "“Liquid–liquid phase separation of full-length prion protein initiates conformational conversion in vitro” (The Journal of Biological Chemistry, 2021)",
  "biological_target": "the molecule itself",
  "experiment": "SDS-PAGE and Western blotting of aged gels collected by centrifugation",
  "data": [
    {"protein": "full-length human recombinant prion protein (residues 23-231) (natural protein, also called rPrP; hu-PrP; source: E. coli DH5α, purified) not shown", "values": [
      {"measurement": "binding result", "value": "binds"}
    ]}
  ]
}
